T1: hsGLUT4 V306A (human, UniProt P14672 1-509)
T1 sequence: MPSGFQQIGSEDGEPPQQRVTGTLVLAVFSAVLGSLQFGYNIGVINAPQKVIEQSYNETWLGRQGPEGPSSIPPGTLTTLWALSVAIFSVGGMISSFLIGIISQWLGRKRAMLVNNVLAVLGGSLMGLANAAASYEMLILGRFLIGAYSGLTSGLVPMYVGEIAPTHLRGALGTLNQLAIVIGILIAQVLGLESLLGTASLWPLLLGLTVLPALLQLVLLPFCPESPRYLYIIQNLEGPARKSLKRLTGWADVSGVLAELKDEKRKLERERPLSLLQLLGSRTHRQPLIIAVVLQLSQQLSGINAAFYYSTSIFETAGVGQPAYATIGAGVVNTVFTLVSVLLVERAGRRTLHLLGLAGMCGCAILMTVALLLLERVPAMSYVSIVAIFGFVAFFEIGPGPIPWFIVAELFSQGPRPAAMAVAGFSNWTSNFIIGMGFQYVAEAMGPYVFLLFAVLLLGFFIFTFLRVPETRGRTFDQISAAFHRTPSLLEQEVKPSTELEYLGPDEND

T2: human GLUT2 (hsGLUT2) (human, UniProt P11168 1-524)
T2 construct: whole, on cells
T2 sequence (looked up): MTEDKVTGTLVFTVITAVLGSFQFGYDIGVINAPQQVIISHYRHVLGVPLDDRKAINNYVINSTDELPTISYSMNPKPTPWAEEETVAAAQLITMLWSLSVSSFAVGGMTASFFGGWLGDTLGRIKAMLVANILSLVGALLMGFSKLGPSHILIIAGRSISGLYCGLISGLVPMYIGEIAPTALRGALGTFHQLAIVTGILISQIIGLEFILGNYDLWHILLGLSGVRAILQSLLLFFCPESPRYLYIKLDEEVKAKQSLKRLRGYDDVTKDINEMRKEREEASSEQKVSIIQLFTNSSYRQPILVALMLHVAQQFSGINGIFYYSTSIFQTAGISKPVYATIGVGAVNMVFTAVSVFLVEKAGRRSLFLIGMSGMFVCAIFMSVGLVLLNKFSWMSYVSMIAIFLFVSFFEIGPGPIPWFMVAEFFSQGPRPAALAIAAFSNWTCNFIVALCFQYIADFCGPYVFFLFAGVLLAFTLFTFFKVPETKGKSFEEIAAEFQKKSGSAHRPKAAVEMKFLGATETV

T3: human GLUT1 (hsGLUT1) (human, UniProt P11166 1-492)
T3 construct: whole, on cells
T3 sequence (looked up): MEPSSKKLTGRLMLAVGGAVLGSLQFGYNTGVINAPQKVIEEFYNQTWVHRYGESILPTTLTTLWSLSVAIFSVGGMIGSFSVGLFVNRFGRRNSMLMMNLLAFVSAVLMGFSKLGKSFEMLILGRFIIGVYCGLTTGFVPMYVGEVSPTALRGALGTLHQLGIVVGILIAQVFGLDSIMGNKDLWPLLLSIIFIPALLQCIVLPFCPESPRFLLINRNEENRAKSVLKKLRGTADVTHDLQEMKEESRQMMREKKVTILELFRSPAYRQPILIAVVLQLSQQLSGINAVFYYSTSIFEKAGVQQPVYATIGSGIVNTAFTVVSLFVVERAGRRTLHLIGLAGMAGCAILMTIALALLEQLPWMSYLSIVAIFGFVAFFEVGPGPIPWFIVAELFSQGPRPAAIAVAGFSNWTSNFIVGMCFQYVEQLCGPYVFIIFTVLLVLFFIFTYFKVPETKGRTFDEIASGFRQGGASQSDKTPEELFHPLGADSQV

T4: mouse GLUT1 (mmGLUT1) (mouse, UniProt P17809 1-492)
T4 construct: whole, on cells
T4 sequence (looked up): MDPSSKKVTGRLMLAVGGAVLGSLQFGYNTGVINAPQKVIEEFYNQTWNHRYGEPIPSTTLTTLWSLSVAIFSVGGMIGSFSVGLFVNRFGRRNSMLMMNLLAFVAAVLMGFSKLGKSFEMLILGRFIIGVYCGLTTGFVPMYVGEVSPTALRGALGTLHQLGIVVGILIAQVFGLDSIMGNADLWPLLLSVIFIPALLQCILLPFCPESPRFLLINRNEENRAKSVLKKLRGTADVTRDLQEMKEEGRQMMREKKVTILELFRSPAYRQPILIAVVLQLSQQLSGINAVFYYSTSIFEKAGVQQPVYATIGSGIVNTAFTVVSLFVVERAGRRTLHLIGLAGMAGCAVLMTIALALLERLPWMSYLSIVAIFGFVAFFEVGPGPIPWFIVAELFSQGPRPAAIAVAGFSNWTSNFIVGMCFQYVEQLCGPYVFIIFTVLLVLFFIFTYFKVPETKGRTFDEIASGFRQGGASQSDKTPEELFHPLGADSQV

B1: AB111 (Fc fusion)
scFv: ALTQPSSVSANPGETVKITCSGSGSWYGWFQQKSPGSAPVTVIYSNDKRPSDIPSRFSGSKSGSTSTLTITGVQVEDEAVYYCGNWDIFGAGTTLTVLGQSSRSSGGGGSSGGGGSAVTLDESGGGLQTPGGALSLVCKASGFTFSSHGMGWVRQAPGKGLEWVASISTGRYTFYAPAVKGRATISRDNGQSTVRLQLNNLRAEDTATYYCTKCAGLNGCGGGEIDAWGHGTEVIVSS
notes: Bivalent scFv-Fc; also called MAb AB111; not shown: Fc fragment of human IgG1, cloned in frame with the scFv
B2: AB108 (Fc fusion)
scFv: ALTQPSSVSANLGGTVKITCSGSSGSYGWYQQKAPGSAPVTLIYRNDKRPSDIPSRFSGSESGSTGTLTITGVQAEDEAVYFCGGYDSSAGYAAFGAGTTLTVLGQSSRSSGGGGSSGGGGSAVTLDESGGGLQTPGGALSLVCKASGFTFSSHGMGWVRQAPGKGLEWVGSISTGRYTFYAPAVKGRATISRDNGQSTLRLQLNNLRAEDTGTYYCTKCAGLNGCGGGEIDAWGHGTEVIVSS
notes: Bivalent scFv-Fc; also called MAb AB108; not shown: Fc fragment of human IgG1, cloned in frame with the scFv
B3: AB101 (scFv)
scFv: ALTQPSSVSANPGETVKITCSGSSNSYGWYQQKSPGSAPVTVIYYNDKRPSDIPSRFSGSKSDSTHTLTITGVRAEDEAVYFCGSYDSTYVGIFGAGTTLTVLGQSSRSSGGGGSSGGGGSAVTLDESGGGLQTPGGTLSLVCKASGFTFSSNAMGWVRQAPGKGLEWVAGISSDGRYTKYGSAVKGRATISRDNGQSTVRLQLNNLRAEDTGTYFCAKAFGNNYRRIYAGQIDAWGHGTEVIVSS
notes: Chicken-derived clone used as a control; the four lead clones were tested as scFv-human IgG1 Fc; also called MAb AB101
B4: AB105 (Fc fusion)
scFv: ALTQPSSVSANPGETVEITCSGDSSYYGWYQQKSPGSAPVTVIYANTNRPSDIPSRFSGSASGSTATLTITGVQAEDEAVYYCGSADSTYAGIFGAGTTLTVLGQSSRSSGGGGSSGGGGSAVTLDESGGGLQTPGGALSLICKASGFTFSSYTMNWVRQAPGKGLEWVGVISNSGRTTNYGAAVQGRATISRDNGQSTVRLQLNNLRAEDTGTYYCAKSSASASCAWWAGRSYPCSANRIDAWGHGTEVIVSS
notes: Bivalent scFv-Fc; also called MAb AB105; not shown: Fc fragment of human IgG1, cloned in frame with the scFv

The molecules below were run against T1, hsGLUT4 V306A (assay: flow cytometry, alanine-scan library in HEK-293T).
Summary of the method: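 HEK-293T cells expressing individual GLUT4 alanine mutants were stained 48 h post-transfection with anti-GLUT4 scFv MAbs (2 μg/ml), then biotinylated secondary and streptavidin-PerCP, and read by high-throughput flow cytometry. Where used, cytochalasin B (10 uM final) was given for 30 min before and during primary antibody staining.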

| Molecule | % of binding to wild type GLUT4 |
| --- | --- |
| 1F8 (antibody) | 74% |
| B1 | 171% |
| B2 | 83% |
| B3 | 91% |

The molecules below were run against T2, human GLUT2 (hsGLUT2) (assay: flow cytometry, transfected HEK-293T).
Description: (§1) HEK-293T cells were transfected by CaPO₄ with plasmids in 6-well culture plates (Falcon) at 750,000 cells/well. At 48 hours post transfection, cells were stained with anti-V5 and anti-GLUT4 MAbs (purified scFv, 2 μg/ml) followed by biotinylated goat anti-mouse or human antibody (1:500) and streptavidin-PerCP (1:500). Fluorescence was detected using an Intellicyt high-throughput flow cytometer (HTFC; Intellicyt, Albuquerque, N. Mex.). For cell permeabilization, cells were treated with saponin at 0.1% in PBS for 20 minutes. To discriminate intact (live) and permeabilized (dead) cells without the use of detergent, propidium iodide (PI) was added to HEK-293T cells at 1 ug/ml just prior to flow cytometry. Where indicated, cytochalasin B (Sigma) was used at a final concentration of 10 uM and phloretin (Sigma) was used at a final concentration of 100 uM, each added in 10% NGS for 30 minutes prior to antibody staining as well as included with the primary antibody.

| Molecule | binding result |
| --- | --- |
| B4 | no binding (tested: 2 µg/ml) |
| B1 | no binding (tested: 2 µg/ml) |
| B2 | no binding (tested: 2 µg/ml) |

The molecules below were run against T3, human GLUT1 (hsGLUT1) (assay: flow cytometry, transfected HEK-293T).
Description: as §1

| Molecule | binding result |
| --- | --- |
| B4 | no binding (tested: 2 µg/ml) |
| B1 | no binding (tested: 2 µg/ml) |
| B2 | no binding (tested: 2 µg/ml) |

Each molecule was assayed against T4, mouse GLUT1 (mmGLUT1) (assay: flow cytometry, transfected HEK-293T).
Description: as §1

| Molecule | binding result |
| --- | --- |
| B4 | no binding (tested: 2 µg/ml) |
| B1 | no binding (tested: 2 µg/ml) |
| B2 | no binding (tested: 2 µg/ml) |

Source: patent US20210238276A1 (INTEGRAL MOLECULAR, published 2021)
